Measurements: article PMC4789106 (Biochemistry, 2015)
Where two headings read alike, the source gives them in different places.

B1: Transforming growth factor beta-induced protein (TGFBIp) from human corneal stroma extract (natural protein, human (endogenous in corneal stroma), UniProt Q15582 24-683, looked up)
chain: GPAKSPYQLVLQHSRLRGRQHGPNVCAVQKVIGTNRKYFTNCKQWYQRKICGKSTVISYECCPGYEKVPGEKGCPAALPLSNLYETLGVVGSTTTQLYTDRTEKLRPEMEGPGSFTIFAPSNEAWASLPAEVLDSLVSNVNIELLNALRYHMVGRRVLTDELKHGMTLTSMYQNSNIQIHHYPNGIVTVNCARLLKADHHATNGVVHLIDKVISTITNNIQQIIEIEDTFETLRAAVAASGLNTMLEGNGQYTLLAPTNEAFEKIPSETLNRILGDPEALRDLLNNHILKSAMCAEAIVAGLSVETLEGTTLEVGCSGDMLTINGKAIISNKDILATNGVIHYIDELLIPDSAKTLFELAAESDVSTAIDLFRQAGLGNHLSGSERLTLLAPLNSVFKDGTPPIDAHTRNLLRNHIIKDQLASKYLYHGQTLETLGGKKLRVFVYRNSLCIENSCIAAHDKRGRYGTLFTMDRVLTPPMGTVMDVLKGDNRFSMLVAAIQSAGLTETLNREGVYTVFAPTNEAFRALPPRERSRLLGDAKELANILKYHIGDEILVSGGIGALVRLKSLQGDKLEVSLKNNVVSVNKEPVAEPDIMATNGVVHVITNVLQPPANRPQERGDELADSALEIFKQASAFSRASQRSVRLAPVYQKLLERMKH
B2: Recombinant WT TGFBIp (natural protein, human, UniProt Q15582 24-683, looked up)
chain: GPAKSPYQLVLQHSRLRGRQHGPNVCAVQKVIGTNRKYFTNCKQWYQRKICGKSTVISYECCPGYEKVPGEKGCPAALPLSNLYETLGVVGSTTTQLYTDRTEKLRPEMEGPGSFTIFAPSNEAWASLPAEVLDSLVSNVNIELLNALRYHMVGRRVLTDELKHGMTLTSMYQNSNIQIHHYPNGIVTVNCARLLKADHHATNGVVHLIDKVISTITNNIQQIIEIEDTFETLRAAVAASGLNTMLEGNGQYTLLAPTNEAFEKIPSETLNRILGDPEALRDLLNNHILKSAMCAEAIVAGLSVETLEGTTLEVGCSGDMLTINGKAIISNKDILATNGVIHYIDELLIPDSAKTLFELAAESDVSTAIDLFRQAGLGNHLSGSERLTLLAPLNSVFKDGTPPIDAHTRNLLRNHIIKDQLASKYLYHGQTLETLGGKKLRVFVYRNSLCIENSCIAAHDKRGRYGTLFTMDRVLTPPMGTVMDVLKGDNRFSMLVAAIQSAGLTETLNREGVYTVFAPTNEAFRALPPRERSRLLGDAKELANILKYHIGDEILVSGGIGALVRLKSLQGDKLEVSLKNNVVSVNKEPVAEPDIMATNGVVHVITNVLQPPANRPQERGDELADSALEIFKQASAFSRASQRSVRLAPVYQKLLERMKH
B3: A546T FAS1-4 (fourth fasciclin 1 domain of TGFBIp with the A546T substitution) (domain or fragment, human)
chain: AGMGTVMDVLKGDNRFSMLVAAIQSAGLTETLNREGVYTVFAPTNETFRALPPRERSRLLGDAKELANILKYHIGDEILVSGGIGALVRLKSLQGDKLEVSLKNNVVSVNKEPVAEPDIMATNGVVHVITNVLQPPANRPQERGDELADSALEIFKQA
B4: Y571-R588 peptide of TGFBIp (peptide, UniProt Q15582 571-588, looked up)
peptide: YHIGDEILVSGGIGALVR

Key:
[1] = target: B4; experiment: pull-down
[2] = target: B4; experiment: pull-down
[3] = target: the molecule itself; experiment: centrifugation and limited trypsin proteolysis of fibrils
Recombinant WT TGFBIp = target: B2; experiment: pull-down
[4] = target: the molecule itself; experiment: ThT fluorescence fibrillation assay + TEM

Binder	binding result (Recombinant WT TGFBIp)	binding result [4]	other results
B1	–	–	amount of TGFBIp bound, fold against F515-R533 fibrils [1]: ~3 times
B2	–	–	amount of TGFBIp bound, fold against F515-R533 fibrils [2]: ~1.6 times
B3	binds	–	binding result [3]: binds
B4	–	binds	–
FSMLVAAIQSAGLTETLNR (peptide, UniProt Q15582 515-533, looked up) [F515-R533 peptide of TGFBIp]	binds	binds	–
